“Also recorded” adds a separate entry of the source.
Tests used:
Ret^−/− DRG neurons = test: GDNF-evoked [Ca^2+]i changes, confocal microscopy, Ret^−/− DRG neurons; type: cell-based, mouse
Description: DRG from embryonic day 18 (E18) mice were treated with trypsin (Worthington), non-neuronal cells removed by preplating, and about 95% pure neurons cultured on poly-ornithine-laminin-coated glass coverslips in Ham's F14 medium (Imperial Laboratories) with serum substitute containing NGF, BDNF and NT-3 (all from PeproTech, 2 ng/ml if each) for at least 1 day before measurement. Neurotrophins were extensively washed out before GDNF application. GDNF was from PeproTech and donated by Cephalon, Inc. Ret-deficient mice (Schuchardt et al., 1994) were identified from heterozygote matings by the absence of kidneys and PCR-based genotyping. GFRα2-deficient mice were obtained from homozygote matings (Rossi et al., 1999).
[Ca^2+]i was measured using a Bio-Rad MRC-1024 confocal microscope equipped with an argon-krypton laser. The cells were loaded with 10 μM Calcium Green-1AM (Molecular Probes), a membrane permeable Ca^2+ dye, by 30 min incubation in serum free cell-culture media at 37 ° C. and 5 % CO2. After loading, the neurons were kept at room temperature in Dulbecco's PBS solution contained 20 mM HEPES (pH=7.4) for at least 20 min prior to the experiments. All compounds were applied to the bath by a peristaltic pump. 6 kD Heparin (Sigma) and Alexa 568 nm fluorescent dye (Molecular Probes) were loaded into the cells using Molecular Probes' pinocytotic influx loading reagent basically according to the manufacturer instructions. […] Cell injection was performed using Eppendorf microinjection system. The average intensity of fluorescence in the predefined ROI (Region Of Interest) was measured on-line using TimeCourse software from BioRad. The calibration of fluorescence traces was performed in vitro using Fmax and Fmin values obtained with the calcium calibration buffer kit (Molecular Probes). Because the calibration solutions may not reflect the intracellular environment, the experimental data are presented as delta [Ca^2+]i calculated using Kd=190 nM for Calcium Green-1.

[1] = test system: GFRα1-associated Src kinases; test: In vitro kinase assay on anti-GFRα1 immunoprecipitate from Ret^−/− DRG neurons; type: cell-based, mouse; details: GDNF 100 ng/ml, 5 min; Triton X-100 insoluble fraction
Description: (§1) DRG neurons (5×10^5), SHEP neuroblastoma cells (10^7), Neuro2A neuroblastoma cells stably transfected with GFRα1 (10^7) or NIH3T3 cells (NIH3T3/pBpGFRα1) stably transfected with GFRα1 (10^7) were incubated in serum-free culture medium without (control) or with GDNF (GDNF-treated) for 0.5-15 min at 37° C. The cells were washed twice with cold PBS/vanadate and lysed in TX-100 lysis buffer (50 mM Tris-HCl, pH 7.5, 150 mM NaCl, 5 mM EDTA, 1% Triton X-100, 1 mM sodium orthovanadate, 1 mM phenylmethylsulfonyl fluoride (PMSF) and protease inhibitors (Boehringer) on ice for 1 hour. The postnuclear lysates were pre-cleared by incubation with 50 μl of 50% Protein G-Sepharose for goat polyclonal antibodies or Protein A-Sepharose CL4B (Pharmacia) for rabbit polyclonal antibodies for 1 hour at +4° C. After removal of the beads, the supernatants were incubated with 0.4-0.5 μg of anti-GFRα1 or anti-Yes polyclonal antibodies (Santa Cruz Biotechnology) overnight at +4° C. followed by incubation with Protein G or A-Sepharose for 2 hours. The immunocomplexes were washed twice in TX-100 lysis buffer without EDTA and twice in kinase buffer (25 mM Hepes, pH 7.4, 5 mM MgCl2, 5 mM MnCl2, 1 mM sodium orthovanadate). […] Quantification of the optical density of the blots was performed using the TINA program.

CREB [2] = test: CREB Ser-133 phosphorylation assay in Ret^−/− DRG neurons; type: cell-based, mouse; details: after GDNF treatment
Description: (§2) To assess GDNF-dependent MAPK and CREB phosphorylation in all studied cell lines, the semiconfluent cell monolayers were starved for 3 hours in serum-free medium, and then GDNF was applied for the indicated time. For the analysis of MAPK and CREB activation in Ret^−/− animals the DRG neurons were dissected from E18 mice and maintained in NGF-containing medium for 2 hours. After this time the neurons were deprived of NGF by placing them in NGF-free medium in the presence of anti-NGF antibodies. After 2 hr without NGF, the neurons were stimulated with GDNF. In the experiments involving Src-kinase inhibition, a Src-family kinase inhibitor PP2 was added at the indicated concentrations to the cell monolayers 5 min before GDNF application. In some experiments 1 μg/ml of soluble GFRα1 lacking a GPI anchor (GFRα1/Fc chimeric protein; R&D systems) was added 5 min prior to the GDNF application and was kept in the solution during the GDNF treatment, After stimulation, the cells were briefly washed with PBS/sodium vanadate and lysed in the buffer containing TBS, 2 mM EDTA, 1% NP-40, 1% Triton X-100, 1 mM PMSF, 1 mM Na3VO4 and a Complete, protease inhibitors cocktail (Boehringer Mannheim). Total cell protein for each extract was measured by MicroBSA (Pierce) and an equivalent amount of protein was resolved electrophoretically on 10% polyacrylamide gels. […]

Src-type kinase = test: Immuno-complex kinase assay on anti-GFRα1 co-precipitates from SHEP neuroblastoma cells; type: cell-based, human; details: GDNF 100 ng/ml
Description: as §1, with “program. […]” for “program.”

CREB [3] = test: CREB Ser-133 phosphorylation assay in SHEP cells; type: cell-based, human; details: GDNF treatment
Description: as §2

p42/p44 MAPK = test: MAPK phosphorylation in NIH 3T3 fibroblasts stably transfected with GFRα1; type: cell-based; details: GDNF 100 ng/ml
Description: as §2

JNK = JNK phosphorylation assay in SHEP cells; type: cell-based, human; details: GDNF 100 ng/ml
Description: as §2

B1: Glial cell line—derived neurotrophic factor (protein, UniProt P39905 78-211, looked up)
Glial cell line-derived …: SPDKQMAVLPRRERNRQAAAANPENSRGKGRRGQRGKNRGCVLTAIHLNVTDLGLGYETKEELIFRYCSGSCDAAETTYDKILKNLSRNRRLVSDKVGQACCRPIAFDDDLSFLDDNLVYHILRKHSAKRCGCI
notes: TGF-β family-related neurotrophic protein; from PeproTech and donated by Cephalon, Inc
Ret^−/− DRG neurons with long-lasting [Ca^2+]i elevation (Ret^−/− DRG neurons; 10-100 ng/ml GDNF): 60-70% | change in [Ca^2+]i (Ret^−/− DRG neurons; 10-100 ng/ml GDNF): long-lasting [Ca^2+]i elevation | fast [Ca^2+]i rise (Ret^−/− DRG neurons; GDNF): never observed a GDNF-dependent fast [Ca^2+]i rise | change in [Ca^2+]i (calcium entry) (Ret^−/− DRG neurons; GDNF 100 ng/ml in nominally Ca^2+ free external solution (about 20 μM)): evoked a massive [Ca^2+]i overshoot and substantially slower decay kinetics; also recorded: resulted in a profound increase in [Ca^2+]i | phosphoprotein in in vitro kinase assay of anti-GFRα1 precipitate [1]: revealed a major phosphoprotein of approximately 60 kD | CREB phosphorylation in Ser-133 (CREB [2]): increased substantially already at 5 min | Src type kinase activity associated with GFRα1 (Src-type kinase; 1 min, postnuclear lysate): significantly increased Src type kinase activity | increase of Src-type kinase activity (Src-type kinase; Triton X-100 insoluble fractions, relative to non-treated cells): twelve-fold | phosphorylation of CREB in Ser-133 site (CREB [3]): potently induced phosphorylation of CREB | phosphorylation of MAPK (p42/p44 MAPK): reproducibly increased phosphorylation of MAPK | JNK activation (phosphorylation) (JNK): did not evoke JNK activation; also recorded: did not affect the phosphorylation of JNK
